From US20090246191A1

How the values were obtained:
[1] = molecular target: Aβ40 monomer (wild-type amyloid β peptide 1-40) (Artificial)
[2] = molecular target: LC (Jto) fibrils, formed from recombinant Vλ6 Jto; assay: EuLISA, plate-immobilised LC fibrils
[3] = molecular target: F19P Aβ40 monomer (Artificial); assay: EuLISA, plate-immobilised F19P Aβ40 monomer (value in brackets)
[4] = molecular target: soluble cross-linked β-amyloid protein species (CAPS) prepared from Aβ40 (Artificial); assay: EuLISA, plate-immobilised CAPS
[5] = molecular target: Aβ40 monomer (wild-type amyloid β peptide 1-40) (Artificial); assay: EuLISA, plate-immobilised wild-type Aβ40 monomer
[6] = molecular target: Aβ40 fibrils (Artificial); assay: EuLISA, plate-immobilised Aβ40 fibrils

formation of SDS stable cross-linked Aβ40 oligomers (SDS PAGE) [1] [%] | EC50 [2] [nM] | EC50 [3] [nM] | EC50 [4] [nM] | EC50 [5] [nM] | EC50 [6] [nM] | Substance
65 | – | – | – | – | – | ImmunoPure Horseradish peroxidase (HRP) (from UniProt P00433) (enzyme)
– | 1510 | 3670 | 631 | 861 | 1080 | unfractionated IGIV (Gammagard Liquid, human immune globulin intravenous) (polyclonal serum or antibody)
